Results on 18 sequences are retold here after the supplement of paper PMC12764529.

Data set [1] in a line: folding stability dG unfold from trypsin proteolysis; higher = more stable. In short, it runs like this: (§1)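 Mini-proteins designed to be under 80 residues and free of cysteine were carried in a PA-tagged cDNA display construct and digested with trypsin and with chymotrypsin. Each protease was applied at 11 threefold-diluted concentrations, alongside a no-protease condition, before sequencing. K50 came from Bayesian fitting of the sequencing counts, and unfolding free energy was obtained by comparing it with a sequence-predicted unfolded-state K50 and a shared folded-state K50, for each protease separately or for both together. Designs were retained only if their AlphaFold2 dimer inter-PAE exceeded 15.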

The nature of data set [2]: folding stability dG unfold from chymotrypsin proteolysis; higher = more stable. The essentials: as §1
The nature of data set [3]: folding stability dG unfold (combined trypsin and chymotrypsin); higher = more stable. The essentials: as §1

± gives the half width of the 95% confidence interval.

“SGMMNNTTITVTDSEPLPDGSVLTNALTFTSSSAGISSPLDLSLSKTPVSSSTTYTNNGVAPASISLNSLSA [r9_1113_JUSTAS]”: the results for the “folding stability dG unfold” value in data set [1], in data set [2] and in data set [3] were 0.678 ± 0.019 kcal/mol, 0.611 ± 0.075 kcal/mol and 0.697 ± 0.049 kcal/mol, respectively.
The like results for “SGMPTLEIEIEFPEVKGETPVPGTDRTLIDTPMKITVTKIENGPPETVEVELPPKLWTEEIEERIKKILGSA [r9_656_JUSTAS]” were, in that order, -0.248 ± 0.66 kcal/mol, 1.2 ± 0.27 kcal/mol and 0.485 ± 0.47 kcal/mol.
With “SGMTSSFEVSPVGDILVVTVSLHFPGLGLSSTASATQDPSSDSMSLDLTIPFPPEDLAPLSLSLSLKPPESA [r9_887_JUSTAS]”, the “folding stability dG unfold” value is 2.61 ± 0.12 kcal/mol in data set [1], 3.62 ± 0.27 kcal/mol in data set [2] and 2.87 ± 0.23 kcal/mol in data set [3].
As to “SGPGPEKIKEIIKKLFPNLKIESIEEDPATGKYTIKFPNGYTVEVEVPPDGTVTLTVKTPNSTTTFTVPESA [r9_304_JUSTAS]”, the “folding stability dG unfold” value came to 2.15 ± 0.086 kcal/mol in data set [1], 2.32 ± 0.031 kcal/mol in data set [2] and 2.26 ± 0.063 kcal/mol in data set [3].
For “SGPTSTVDPEFPGSTPGGTVTPSVVRVPVPPDEVERVIEEIRERAGVPGLKVERVERTADGVVLIEVSLPSA [r9_1101_JUSTAS]” the same measures were 0.36 ± 0.029 kcal/mol, 1.15 ± 0.015 kcal/mol and 0.882 ± 0.066 kcal/mol.
The like results for “SGPVPLPVEVTFEPNSETTVTLPSGRTYTVPTPPNGSATATADPATGVVTITVTSGSSTTTLTFPVPAELSA [r9_226_JUSTAS]” were, in that order, 0.361 ± 0.006 kcal/mol, 0.712 ± 0.033 kcal/mol and 0.592 ± 0.051 kcal/mol.
“SGQHKVTVPIEIRIYPPDPDGKWKPIGEIPIPVTYEYPKDQPEKAERQAREQVIDEIKKFAKKNGYRIYISA [r9_356_TrROS]”: the results for the “folding stability dG unfold” value in data set [1], in data set [2] and in data set [3] were 0.452 ± 0.15 kcal/mol, 0.287 ± 0.36 kcal/mol and 0.361 ± 0.2 kcal/mol, respectively.
The like results for “SGSFASVTEDSLPDGGGYIVATEVSTGASRVYPPGTVVAEPAPADSTLVETLYDPATGEPLSTTTRTVAASA [r9_209_JUSTAS]” were, in that order, -0.712 ± 0.2 kcal/mol, 0.00381 ± 0.13 kcal/mol and -0.0457 ± 0.11 kcal/mol.
For “SGSMTIKLTPDSPVEDVVKFIAENPNVNVTLLMPPEMSEELREKFEKALKEANVPKSQKVTFEVVPPGEESA [r9_670_JUSTAS]” the same measures were 2.6 ± 0.14 kcal/mol, 3.87 ± 0.099 kcal/mol and 3.55 ± 0.15 kcal/mol.
For “SGSPSDDIVTTPLPGPSERATFPDGSSISRSPAGVTTTTSPTSITTTTTTPSATVTSTTTSLPPPSPSAPSA [r9_901_JUSTAS]” the same measures were -0.696 ± 0.034 kcal/mol, 0.184 ± 0.015 kcal/mol and -0.0591 ± 0.07 kcal/mol.
Turning to “SGSSMGPPDVKERLIDIPSSELSPEVLEEIIEEAIKEGYSVVTINIPEGKYITIELKDGKVTKITEKSLESA [r9_905_JUSTAS]”, the “folding stability dG unfold” value in data set [1] came out at 1.84 ± 0.035 kcal/mol; in data set [2], 1.75 ± 0.047 kcal/mol; in data set [3], 1.76 ± 0.088 kcal/mol.
For “SGSTTLKTTTIPEGPLTVETTISPDGVVTGTIYDPEGKKIADYTMTYTWTTLPNGEKRLETVTVTINLGLSA [r9_434_JUSTAS]” the same measures were 1.9 ± 0.05 kcal/mol, 2.55 ± 0.063 kcal/mol and 2.35 ± 0.07 kcal/mol.
For the sequence “SGSVELSFDPSKPYKVKITATAPKDGTPYEVSGTTDPATGTITLPIRRPGSGEPLPPEELEFEIEVSPPESA [r9_928_JUSTAS]”, the “folding stability dG unfold” value was -0.244 ± 0.071 kcal/mol in data set [1], 0.342 ± 0.12 kcal/mol in data set [2] and 0.167 ± 0.066 kcal/mol in data set [3].
Turning to “SGYVVRIYRPNEKGEPVKIVLPDEEAEELYKELVDEEMSVEEFAERLKKLFPDAKVEVRKAEDIPPEELLSA [r9_1085_TrMRF]”, the “folding stability dG unfold” value came to 2.13 ± 0.07 kcal/mol in data set [1], 1.85 ± 0.023 kcal/mol in data set [2] and 2 ± 0.058 kcal/mol in data set [3].
The like results for “SIFRIRMPGNREFRIFIPPDGMVNVSMPNGKKHTHPFKDKEDAKEIADVLSKHFPNMPVEIEPIPPDDIKSA [r9_1206_TrROS]” were, in that order, 1.26 ± 0.11 kcal/mol, 0.166 ± 0.91 kcal/mol and 0.793 ± 0.37 kcal/mol.
For “SIKIERDGDKIKITFKVPGPFRIMIFNNDEIQETTIPPGKPVKIEIDIPKGNFYIMIYFPGKPLAQIPFKSA [r9_411_TrROS]” the same measures were 2.27 ± 0.19 kcal/mol, 1.96 ± 0.17 kcal/mol and 2.19 ± 0.31 kcal/mol.
For “SIKIQVHMWPDGFYVIKVRFPGNGKPIHIPFPPNETAEEQVDKIANNLWKQHGFEPVEVDIYPMPKPLPPSA [r9_1205_TrROS]” the same measures were 1.81 ± 0.088 kcal/mol, 2.25 ± 0.034 kcal/mol and 2.15 ± 0.12 kcal/mol.
As to “SIMIMIPPGEEIEITIEKLKDVEVMIFNNGKVREQRVPPGEEIKFELPPGAKGFMIMIKGPNGKAQMITLSA [r9_143_TrROS]”, the “folding stability dG unfold” value in data set [1] was 2.74 ± 0.25 kcal/mol; in data set [2] it was 2.75 ± 0.081 kcal/mol; in data set [3] it was 2.66 ± 0.4 kcal/mol.
